Measurements taken from the supplement of paper PMC10065799, “High-throughput profiling of sequence recognition by tyrosine kinases and SH2 domains using bacterial peptide display” (eLife, 2023).

Columns and labels:
c-Src SH2 = assay: SH2 binding enrichment of the phosphorylated peptide, bacterial display (enrichment ratio); higher = better substrate or ligand; peptides without Tyr show the background
SHP2-C SH2 = assay: as above
Grb2 SH2 = Grb2 SH2 (UniProt P62993); assay: as above
MERTK = MERTK (UniProt Q12866); assay: phosphorylation enrichment, bacterial display (enrichment ratio); higher = better substrate or ligand; peptides without Tyr show the background
FGFR1 = FGFR1 (UniProt P11362); assay: as above
Fyn = Fyn (UniProt P06241); assay: as above
c-Abl (mouse) = assay: as above
c-Src = assay: as above
EPHB1 = EPHB1 (UniProt P54762); assay: as above
Fes = Fes (UniProt P07332); assay: as above
Jak2 = Jak2 (UniProt O60674); assay: as above
Fer (mouse) = assay: as above
Hck = Hck (UniProt P08631); assay: as above
AncSZ = assay: as above
FGFR3 = FGFR3 (UniProt P22607); assay: as above
EPHB2 = EPHB2 (UniProt P29323); assay: as above
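For SH2 binding enrichment of the phosphorylated peptide, bacterial display in this document: peptide library displayed on the E. coli surface as eCPX fusions, selected cells deep-sequenced, score is each peptide's frequency after selection divided by its frequency in the input.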
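For phosphorylation enrichment, bacterial display in this document: 11-residue human phosphosite peptides and single-mutation variants displayed on the E. coli surface, counted by deep sequencing, each peptide's frequency after selection divided by its frequency in the unselected input library; frequency after pTyr selection over input frequency; kinase dosed for 20-30% of maximal phosphorylation in three min.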

Chain of FGFR1 (P11362 whole entry, looked up): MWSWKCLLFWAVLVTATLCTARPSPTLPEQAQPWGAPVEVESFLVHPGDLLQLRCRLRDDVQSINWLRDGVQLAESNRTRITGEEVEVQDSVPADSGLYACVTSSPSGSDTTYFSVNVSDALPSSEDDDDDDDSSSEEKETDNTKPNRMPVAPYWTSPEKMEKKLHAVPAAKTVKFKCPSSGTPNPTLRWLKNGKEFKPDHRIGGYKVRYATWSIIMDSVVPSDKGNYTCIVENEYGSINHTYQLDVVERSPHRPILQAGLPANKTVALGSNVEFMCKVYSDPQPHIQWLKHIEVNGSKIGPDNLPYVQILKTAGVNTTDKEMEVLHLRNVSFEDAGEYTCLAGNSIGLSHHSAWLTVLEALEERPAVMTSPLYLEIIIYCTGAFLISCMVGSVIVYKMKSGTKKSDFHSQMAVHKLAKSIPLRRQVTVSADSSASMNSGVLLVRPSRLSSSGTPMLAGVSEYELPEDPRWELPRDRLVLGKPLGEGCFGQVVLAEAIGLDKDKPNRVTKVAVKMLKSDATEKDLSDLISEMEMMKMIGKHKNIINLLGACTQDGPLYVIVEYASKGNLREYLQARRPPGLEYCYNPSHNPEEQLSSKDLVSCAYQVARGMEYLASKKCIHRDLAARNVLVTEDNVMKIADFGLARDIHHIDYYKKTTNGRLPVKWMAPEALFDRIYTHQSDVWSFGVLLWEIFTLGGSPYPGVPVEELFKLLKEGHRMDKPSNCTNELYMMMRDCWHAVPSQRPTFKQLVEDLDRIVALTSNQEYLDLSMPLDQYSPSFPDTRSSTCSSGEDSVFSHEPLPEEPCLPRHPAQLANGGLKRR
Chain of Jak2 (O60674 whole entry, looked up): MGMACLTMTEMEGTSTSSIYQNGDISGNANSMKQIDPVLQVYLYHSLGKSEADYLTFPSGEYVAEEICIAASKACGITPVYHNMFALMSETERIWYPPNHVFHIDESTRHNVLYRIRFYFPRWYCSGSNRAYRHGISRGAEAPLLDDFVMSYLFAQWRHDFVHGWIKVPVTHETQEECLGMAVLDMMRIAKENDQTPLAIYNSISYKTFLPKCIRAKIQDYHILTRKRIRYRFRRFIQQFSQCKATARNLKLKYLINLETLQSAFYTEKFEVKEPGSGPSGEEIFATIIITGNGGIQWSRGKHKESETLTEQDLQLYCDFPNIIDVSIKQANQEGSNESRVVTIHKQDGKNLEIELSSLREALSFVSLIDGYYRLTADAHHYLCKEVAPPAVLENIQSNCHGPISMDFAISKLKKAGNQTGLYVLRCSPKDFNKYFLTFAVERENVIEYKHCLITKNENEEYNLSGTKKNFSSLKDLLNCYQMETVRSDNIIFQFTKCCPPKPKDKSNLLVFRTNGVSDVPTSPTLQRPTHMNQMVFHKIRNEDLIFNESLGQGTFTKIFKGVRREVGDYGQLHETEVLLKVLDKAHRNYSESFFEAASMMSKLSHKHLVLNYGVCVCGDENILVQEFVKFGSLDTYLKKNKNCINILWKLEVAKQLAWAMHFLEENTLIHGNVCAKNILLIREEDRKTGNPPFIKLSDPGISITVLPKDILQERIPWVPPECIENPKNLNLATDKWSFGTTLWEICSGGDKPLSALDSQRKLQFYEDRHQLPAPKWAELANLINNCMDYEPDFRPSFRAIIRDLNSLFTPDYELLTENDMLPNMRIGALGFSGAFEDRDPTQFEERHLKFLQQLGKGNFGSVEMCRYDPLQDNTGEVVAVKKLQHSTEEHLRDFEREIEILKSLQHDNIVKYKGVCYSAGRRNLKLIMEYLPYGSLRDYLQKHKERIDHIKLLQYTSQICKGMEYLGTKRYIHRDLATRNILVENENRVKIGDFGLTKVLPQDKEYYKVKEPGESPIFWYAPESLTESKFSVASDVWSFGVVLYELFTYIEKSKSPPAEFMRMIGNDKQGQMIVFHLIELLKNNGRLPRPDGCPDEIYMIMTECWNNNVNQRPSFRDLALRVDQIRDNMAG
Chain of FGFR3 (P22607 whole entry, looked up): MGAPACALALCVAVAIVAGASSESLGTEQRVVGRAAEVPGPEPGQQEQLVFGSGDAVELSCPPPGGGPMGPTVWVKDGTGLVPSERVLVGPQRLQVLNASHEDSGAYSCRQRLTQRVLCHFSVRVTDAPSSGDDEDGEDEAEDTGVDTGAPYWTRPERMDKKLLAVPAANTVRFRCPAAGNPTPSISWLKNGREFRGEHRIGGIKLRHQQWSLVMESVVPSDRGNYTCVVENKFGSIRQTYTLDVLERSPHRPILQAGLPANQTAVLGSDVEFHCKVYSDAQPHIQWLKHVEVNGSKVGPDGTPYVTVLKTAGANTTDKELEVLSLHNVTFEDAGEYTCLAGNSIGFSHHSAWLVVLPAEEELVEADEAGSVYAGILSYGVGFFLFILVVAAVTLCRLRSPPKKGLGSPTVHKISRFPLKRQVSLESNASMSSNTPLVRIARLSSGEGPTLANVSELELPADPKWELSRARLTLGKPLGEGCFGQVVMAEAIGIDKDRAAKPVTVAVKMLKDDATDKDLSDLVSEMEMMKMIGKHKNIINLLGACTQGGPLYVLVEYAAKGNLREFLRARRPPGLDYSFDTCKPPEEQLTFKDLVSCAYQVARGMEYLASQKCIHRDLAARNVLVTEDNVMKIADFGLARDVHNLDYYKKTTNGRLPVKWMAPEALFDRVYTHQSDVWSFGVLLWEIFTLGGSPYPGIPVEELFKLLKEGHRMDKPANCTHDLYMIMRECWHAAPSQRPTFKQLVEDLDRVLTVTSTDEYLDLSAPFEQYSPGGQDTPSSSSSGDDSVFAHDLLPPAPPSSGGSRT
Chain of EPHB2 (P29323 whole entry, looked up, the tested form may be a part): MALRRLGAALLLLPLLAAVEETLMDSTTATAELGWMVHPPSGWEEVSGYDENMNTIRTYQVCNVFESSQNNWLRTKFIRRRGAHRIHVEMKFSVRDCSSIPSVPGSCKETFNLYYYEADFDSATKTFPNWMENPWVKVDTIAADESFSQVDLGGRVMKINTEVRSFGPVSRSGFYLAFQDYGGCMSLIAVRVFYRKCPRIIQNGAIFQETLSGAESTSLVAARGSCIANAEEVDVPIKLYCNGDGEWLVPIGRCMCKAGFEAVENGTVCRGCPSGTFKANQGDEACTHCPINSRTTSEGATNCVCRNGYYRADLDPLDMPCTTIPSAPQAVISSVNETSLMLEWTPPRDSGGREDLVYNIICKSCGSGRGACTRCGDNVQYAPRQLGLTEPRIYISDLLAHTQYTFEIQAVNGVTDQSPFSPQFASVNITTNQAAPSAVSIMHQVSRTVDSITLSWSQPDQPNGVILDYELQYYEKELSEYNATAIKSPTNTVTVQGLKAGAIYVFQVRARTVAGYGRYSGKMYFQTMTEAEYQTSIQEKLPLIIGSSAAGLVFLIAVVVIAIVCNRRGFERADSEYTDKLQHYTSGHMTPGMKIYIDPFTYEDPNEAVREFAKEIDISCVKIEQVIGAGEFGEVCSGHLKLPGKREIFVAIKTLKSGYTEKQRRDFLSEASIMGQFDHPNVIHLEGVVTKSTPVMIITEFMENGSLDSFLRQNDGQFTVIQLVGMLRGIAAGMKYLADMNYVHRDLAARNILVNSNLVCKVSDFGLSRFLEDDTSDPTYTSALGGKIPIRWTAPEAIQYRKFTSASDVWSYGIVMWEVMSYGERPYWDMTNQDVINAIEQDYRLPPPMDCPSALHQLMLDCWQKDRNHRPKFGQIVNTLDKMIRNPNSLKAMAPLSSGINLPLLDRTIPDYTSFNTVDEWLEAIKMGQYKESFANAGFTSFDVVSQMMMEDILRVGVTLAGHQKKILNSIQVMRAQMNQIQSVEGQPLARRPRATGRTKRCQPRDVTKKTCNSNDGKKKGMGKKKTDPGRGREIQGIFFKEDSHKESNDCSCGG
Chain of EPHB1 (P54762 whole entry, looked up): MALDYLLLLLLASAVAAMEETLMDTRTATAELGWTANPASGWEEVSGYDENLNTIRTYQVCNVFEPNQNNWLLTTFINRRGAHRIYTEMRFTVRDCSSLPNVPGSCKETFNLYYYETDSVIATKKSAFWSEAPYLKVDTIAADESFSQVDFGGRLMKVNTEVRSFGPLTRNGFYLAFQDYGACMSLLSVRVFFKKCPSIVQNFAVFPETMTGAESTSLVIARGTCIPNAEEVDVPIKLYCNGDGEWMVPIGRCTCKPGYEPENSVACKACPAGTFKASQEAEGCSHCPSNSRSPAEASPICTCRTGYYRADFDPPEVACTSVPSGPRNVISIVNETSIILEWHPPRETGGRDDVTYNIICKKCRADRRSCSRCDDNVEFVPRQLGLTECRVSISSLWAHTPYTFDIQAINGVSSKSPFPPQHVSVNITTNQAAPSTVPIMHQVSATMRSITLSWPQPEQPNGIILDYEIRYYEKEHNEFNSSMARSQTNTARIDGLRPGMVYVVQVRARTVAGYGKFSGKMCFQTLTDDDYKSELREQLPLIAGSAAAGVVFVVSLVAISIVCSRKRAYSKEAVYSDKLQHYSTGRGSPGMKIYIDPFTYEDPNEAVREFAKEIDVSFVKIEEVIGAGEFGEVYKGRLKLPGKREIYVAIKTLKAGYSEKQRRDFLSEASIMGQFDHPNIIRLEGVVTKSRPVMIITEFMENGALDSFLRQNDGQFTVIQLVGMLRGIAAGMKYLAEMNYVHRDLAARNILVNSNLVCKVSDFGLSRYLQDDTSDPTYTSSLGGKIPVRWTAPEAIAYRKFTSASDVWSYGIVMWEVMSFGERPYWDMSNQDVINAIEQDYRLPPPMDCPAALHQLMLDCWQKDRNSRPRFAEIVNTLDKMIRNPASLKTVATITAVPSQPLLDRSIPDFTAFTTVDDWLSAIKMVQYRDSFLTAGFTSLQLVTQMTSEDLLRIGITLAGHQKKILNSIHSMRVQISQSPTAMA

| SH2 binding enrichment (c-Src SH2) | SH2 binding enrichment (SHP2-C SH2) | SH2 binding enrichment (Grb2 SH2) | Sequence | phosphorylation enrichment (MERTK) | phosphorylation enrichment (FGFR1) | phosphorylation enrichment (Fyn) | phosphorylation enrichment (c-Abl (mouse)) | phosphorylation enrichment (c-Src) | phosphorylation enrichment (EPHB1) | phosphorylation enrichment (Fes) | phosphorylation enrichment (Jak2) | phosphorylation enrichment (Fer (mouse)) | phosphorylation enrichment (Hck) | phosphorylation enrichment (AncSZ) | phosphorylation enrichment (FGFR3) | phosphorylation enrichment (EPHB2) |
| --- | --- | --- | --- | --- | --- | --- | --- | --- | --- | --- | --- | --- | --- | --- | --- | --- |
| 0.566 | 0.838 | 0.96 | NIQKKYFRAIL [CHD7_Y1217_YF] | 0.458 | 0.436 | 0.352 | 0.43 | 0.335 | 0.37 | 0.655 | 0.718 | 0.399 | 0.421 | 0.625 | 0.433 | 0.383 |
| 0.459 | 0.542 | 0.823 | SLMGCYNLTFM [HS6ST3_Y323_V320M] | 0.56 | 0.546 | 0.592 | 1.14 | 0.955 | 0.65 | 1.63 | 1.61 | 1.35 | 0.724 | 1.46 | 1.02 | 0.655 |
| 0.539 | 0.498 | 0.888 | DQLVKYGVNPG [TMPO_Y127] | 0.314 | 0.292 | 0.369 | 0.475 | 0.294 | 0.467 | 0.605 | 0.479 | 0.356 | 0.363 | 0.553 | 0.49 | 0.325 |
| 0.473 | 0.84 | 1.05 | AELVQYFMEHH [PTPN11_Y80_YF] | 0.508 | 0.652 | 0.623 | 0.547 | 0.437 | 0.618 | 1.08 | 0.695 | 0.463 | 0.66 | 1.02 | 0.762 | 0.545 |
| 1.54 | 1.84 | 2.12 | RLLVVYPWNQR [HBB_Y36_T39N] | 0.636 | 0.557 | 0.603 | 0.735 | 0.351 | 0.391 | 1.4 | 1.04 | 0.595 | 0.431 | 1.1 | 0.62 | 0.752 |
| 0.523 | 0.648 | 0.79 | GADAIYDHVNE [UQCR10_Y44_I47V] | 2.02 | 0.456 | 4.52 | 0.8 | 3.77 | 1.34 | 1.08 | 0.773 | 3.42 | 6.29 | 1.09 | 0.62 | 1.82 |
| 2.03 | 4.03 | 3.76 | LTVVIYVLVGR [EPHA3_Y561_I564V] | 0.479 | 0.54 | 1.12 | 0.81 | 0.183 | 0.26 | 0.63 | 0.391 | 0.348 | 0.168 | 1.16 | 0.44 | 0.251 |
| 1.41 | 0.884 | 1.08 | VLRRVYVDFEG [KMT2B_Y1707] | 0.435 | 0.478 | 0.472 | 0.629 | 0.602 | 0.424 | 0.909 | 0.774 | 0.403 | 0.502 | 0.842 | 0.613 | 0.518 |
| 0.523 | 0.75 | 0.877 | DWRQEYVLNEP [TGM1_Y267_S272P] | 0.495 | 1.7 | 0.672 | 0.669 | 1.89 | 0.407 | 1.13 | 0.988 | 0.55 | 0.397 | 1.24 | 1.24 | 0.426 |
| 0.529 | 0.653 | 0.932 | FGPPQYNMQFS [ERBB2IP_Y977_I979M_YF] | 0.376 | 0.448 | 0.456 | 0.383 | 0.372 | 0.414 | 0.679 | 0.49 | 0.306 | 0.52 | 0.64 | 0.452 | 0.427 |
| 0.679 | 0.979 | 1.15 | MKKKIYAMGGG [GAN_Y424] | 0.432 | 0.376 | 0.297 | 0.519 | 0.393 | 0.335 | 0.465 | 0.39 | 0.389 | 0.414 | 0.397 | 0.341 | 0.302 |
| 1.92 | 0.664 | 0.63 | HEDPMYDIIRD [RP9_Y142] | 5.24 | 0.718 | 5.63 | 1.27 | 5.36 | 3.51 | 1.48 | 1.29 | 4.2 | 5.56 | 1.94 | 0.687 | 3.85 |
| 2.12 | 2.3 | 0.897 | TTPAVYARVAK [CTRB2_Y246] | 0.529 | 0.436 | 1.28 | 1.04 | 2.23 | 0.594 | 0.583 | 0.464 | 0.383 | 2.77 | 0.49 | 0.436 | 0.505 |
| 8.28 | 4.49 | 1.02 | CPTIHYNYMCN [TP53_Y234_T230P] | 0.462 | 0.54 | 0.594 | 0.634 | 0.462 | 0.603 | 0.999 | 0.776 | 0.621 | 0.429 | 0.843 | 0.586 | 0.607 |
| 1.18 | 1.86 | 1.38 | TFRPPYYHRNC [HGD_Y333] | 0.498 | 0.497 | 0.562 | 0.599 | 0.559 | 0.506 | 0.878 | 0.686 | 0.375 | 0.524 | 0.721 | 0.486 | 0.474 |
| 0.861 | 1.55 | 1.6 | FFVVEYRDQKP [MUC17_Y4332_YF] | 0.374 | 0.612 | 0.474 | 0.617 | 0.566 | 0.657 | 1.27 | 1.03 | 0.53 | 0.515 | 1.05 | 0.803 | 0.647 |
| 7.11 | 0.58 | 0.754 | LNCAGYCDALE [MTUS1_Y151] | 0.617 | 0.55 | 0.514 | 0.917 | 0.683 | 0.621 | 1.3 | 1.32 | 0.599 | 0.511 | 1.19 | 0.906 | 0.578 |

| SH2 binding enrichment (c-Src SH2) | SH2 binding enrichment (SHP2-C SH2) | SH2 binding enrichment (Grb2 SH2) | Sequence | phosphorylation enrichment (MERTK) | phosphorylation enrichment (FGFR1) | phosphorylation enrichment (Fyn) | phosphorylation enrichment (c-Abl (mouse)) | phosphorylation enrichment (c-Src) | phosphorylation enrichment (EPHB1) | phosphorylation enrichment (Fes) | phosphorylation enrichment (Jak2) | phosphorylation enrichment (Fer (mouse)) | phosphorylation enrichment (Hck) | phosphorylation enrichment (AncSZ) | phosphorylation enrichment (FGFR3) | phosphorylation enrichment (EPHB2) |
| --- | --- | --- | --- | --- | --- | --- | --- | --- | --- | --- | --- | --- | --- | --- | --- | --- |
| 0.983 | 0.516 | 0.71 | KGFCGYSFDDI [TMEM230_Y110_R108C_YF] | 0.471 | 0.595 | 0.526 | 1.07 | 1.16 | 0.613 | 1.35 | 1.28 | 0.504 | 0.456 | 1.18 | 0.863 | 0.568 |
| 0.767 | 0.921 | 0.785 | LDTFIYDAAVL [GRIN2A_Y730_A727T] | 2.94 | 0.827 | 7.61 | 7.38 | 7.94 | 1.68 | 1.65 | 1.4 | 16.9 | 8.1 | 1.97 | 0.991 | 2.05 |
| 0.675 | 0.719 | 0.742 | LADKPYTFEFF [FXN_Y118_D122Y_YF] | 1.22 | 0.649 | 1.47 | 1.19 | 2.87 | 0.764 | 1.82 | 1.58 | 1.25 | 0.644 | 1.78 | 0.952 | 0.683 |
| 0.44 | 0.607 | 0.679 | RGYRQYAYDGK [HLA-A_Y140_D140Y] | 0.423 | 0.426 | 0.252 | 0.532 | 0.434 | 0.674 | 0.474 | 0.402 | 0.317 | 0.294 | 0.478 | 0.39 | 0.243 |
| 0.936 | 0.95 | 1.48 | LFRFGYANTSE [SI_Y1233_C1229Y_YF] | 0.315 | 0.619 | 0.411 | 0.847 | 0.376 | 0.378 | 0.937 | 0.807 | 0.433 | 0.51 | 0.696 | 0.497 | 0.585 |
| 0.499 | 1.12 | 0.856 | NTPNAYLRVNV [ADD2_Y440_T439A] | 0.404 | 0.437 | 0.437 | 0.706 | 0.391 | 0.463 | 0.934 | 0.806 | 0.405 | 0.469 | 0.868 | 0.667 | 0.465 |
| 0.381 | 0.527 | 0.751 | EQKKFYNAMKN [SCN5A_Y1495_K1500N_YF] | 0.458 | 0.366 | 0.367 | 0.446 | 0.409 | 0.297 | 0.43 | 0.41 | 0.451 | 0.388 | 0.458 | 0.427 | 0.33 |
| 0.463 | 0.543 | 1.06 | LFDPDFMKVIL [CYP4A22_Y104_Y104F_YF] | 1.06 | 1.15 | 0.899 | 2.1 | 1.23 | 1.63 | 2.6 | 2.74 | 0.999 | 1.12 | 2.44 | 1.86 | 0.908 |
| 0.567 | 0.696 | 0.811 | TSNQEYLDVSM [FGFR1_Y766_L769V] | 0.441 | 1.24 | 0.504 | 0.684 | 0.415 | 0.866 | 1.06 | 0.958 | 0.561 | 0.56 | 1.15 | 1.05 | 0.681 |
| 0.538 | 0.467 | 0.513 | ADRNHYRRYRR [YBX1_Y145_P149R] | 0.532 | 0.532 | 0.525 | 0.661 | 0.608 | 0.522 | 0.861 | 0.549 | 0.488 | 0.522 | 0.619 | 0.572 | 0.499 |
| 1.83 | 0.639 | 0.704 | SDFFAYSPVQE [H6PD_Y449_R453Q_YF] | 0.645 | 0.577 | 0.489 | 0.922 | 0.611 | 0.783 | 1.32 | 1.36 | 1.13 | 0.647 | 1.44 | 0.807 | 0.686 |
| 0.56 | 1.03 | 0.962 | FSKTQYNQVPS [CXADR_Y318_YF] | 0.697 | 0.577 | 0.507 | 0.892 | 0.613 | 0.424 | 0.85 | 1.15 | 0.551 | 0.598 | 0.801 | 0.556 | 0.858 |
| 3.07 | 2.67 | 0.944 | HPHECYAKVFD [ALB_Y394_D389H] | 0.764 | 0.636 | 0.622 | 1.01 | 0.659 | 0.641 | 1.36 | 1.3 | 0.624 | 0.654 | 1.16 | 0.845 | 0.441 |
| 0.92 | 1.8 | 1.13 | QRRNVYFFSFL [PTEN_Y176_Y174N_YF] | 0.5 | 0.562 | 1.15 | 0.509 | 0.67 | 0.649 | 1.42 | 1.13 | 0.398 | 0.34 | 1.11 | 0.728 | 0.475 |
| 0.546 | 0.622 | 0.607 | LENSTYQFIRV [CRB1_Y760_YF] | 4.96 | 5.63 | 2.87 | 1.18 | 3.85 | 5.79 | 1.52 | 0.946 | 15.8 | 7.9 | 1.36 | 3.21 | 1.75 |
| 0.549 | 0.703 | 1.32 | KGLKVYVNGTL [ADGRD1_Y183_E178K] | 0.431 | 0.421 | 0.364 | 0.584 | 0.406 | 0.524 | 1.16 | 0.923 | 0.452 | 0.441 | 1.11 | 0.677 | 0.576 |
